This data set in a line: yeast display, Sf9 membrane polyspecificity reagent, FACS + sequencing; frameworks hold sequencing errors. A digest of the protocol:
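After 36–48 hours of galactose induction, yeast (Saccharomyces cerevisiae BJ5465) displaying a synthetic nanobody library were stained at 4 °C for 1 hour with 10% biotinylated, detergent-solubilized Sf9 membrane reagent. Streptavidin microbeads enriched the stained cells before FACS sorting into low and high (top ~1%) gates on anti-HA and streptavidin fluorescence. Each clone's polyreactivity label reflects its gate of origin.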
In the case of “QVQLVESGGGLVQAGGSLRLSCAASGSTFWVYAMGWYRQAPGKERELVATISRGGSTNYADSVKGRFTISRDNAKNTVYLQMNSLKPEDTAVYYCAAPRFYGYGYEYWGQGTQVTVSS”, the “polyreactivity (PSR sort gate)” value is given as “low polyreactivity”.

Consider “QDQLVESGGGLLQAGGSLRLSCAASGRTFNSYAMGWYRQAPGKERVLVAAISSSGGSTYYADSVKGRFTISRDNAKNTVYLEMNSLKPEDTAVYYCAAGLGSTSALLYGYWGQGTLVTVSS”, for which the “polyreactivity (PSR sort gate)” value is “high polyreactivity”. To “QVQLVESGGGLVQAGGSLRLSCAASGRIFADNAMGWYRQAPGKERELVATISRNGGRTSYADSVKGRFTISRDNAKNTVYLQMNSLNPEVTAVYYCAVRAPGSSEGYYWGQGSQVTVSS” belongs “low polyreactivity”; to “QEQLQESGGGLVQAGGSLRLSCAASGSISQAWYMGWYRQAPGKERELVAAINVGAITYYADSVKGRFSISRDNAKNTVYLPMNSLTPEDTAVYYCAVDQYSEAYYDYWGQGTQATVSS”, “high polyreactivity”. Turning to “QVQLVESGRGLVQAGGSLRLSCAASGIIFTYNAMGWYRQAPGKERELVAAISAGGGSTYYADSVKGRFTISRDNAKNTVYLQMNSLKPEDTAVYYCAAARRYATQFHYDSWGQGTQVTVSS”, the “polyreactivity (PSR sort gate)” value is on record as “high polyreactivity”. For the sequence “QVQLVESGGGLVQAGGSLRLSCAASGSIFYRYAMGWYRQAPGKERELVASISSGVSTNYADSVKGRFTISRDNAKNTVYLQMNSLKPEDTAVYYCAAYYRGWSSSYWYPAYNYWGQGTQVTVSS”, the “polyreactivity (PSR sort gate)” value was “low polyreactivity”. In the case of “QVQLVESGGGLVQAGGSLRLSCAASGLTCGKYAMGWYRQAPGKERELVAAINSSGGSTYYADSVKGRFTISRDNAKNTVYLQMNSLKPEDTAVYYCAVAVYRLIYFEYNYWGQGTQVTVSS” it was “low polyreactivity”; in that of “QVQLVESGGGLVQAGGSLRLSCAASGFIFVLYAMGWDRQAPGKERELVAAINGGSSTNYADSVKGRFTISRDNAKNTVYLQMNSLKPEDTAVYYCAADVIPDGVKKPRMYYWGQGTQVTVSS”, “low polyreactivity”. In the case of “QVKLVESGGGLVQAGGSLRLSCAASGLTFATYAMGWYREAPGKERELVAAISYSGDSTYYADSVKGRFTISRDNAKNTVYLQMNSLKPEDTAVYYCAKRLKRYRSSYKTFKLDYWGQGTQVTVSS” it was “high polyreactivity”; in that of “QVQLVESGGGLVQAGGSLRLSCAASGFNFARNTMGWYRQAPGKERELVAAISSSGGSTYYADSVKGRFTISRDNAKNTVYLQMNSLKPEDTAVYYCNKGYTGLYGYDYWGQGTQVTVSS”, “high polyreactivity”; in that of “QVQLVESGGGLVQAGGSLRLSCAASGSTSPRNAMGWYRQAPGKERELVAAISSGGRTNYAVSVKGRFTISRDNAKNTVYLQMNSLKPEDTAVYYCAAAVQSTYWGQGTQVTVSS”, “low polyreactivity”. In the case of “QVQLVESGGGLVQAGGSLRLSCAASGSIFYTYVMGWYRQAPGKVREFVAAISKSGGSTYYADSVKGRFTISRDNAKNPVYLQMNSLIPEVTAVYYCAAYPIVSIQRRARGNSWGQGTQVTVSS” it was “high polyreactivity”; in that of “QVQLVESGVGLVQAGGSLRLTCAASGSIFTAYPMGSYRQAPGKERELVAAISRSGGRTYYADSVKGRFTISRDNAQITVNFQFNSLKPEDTAVYNCAAASRSTNYNYYYWGLGTQVTVSS”, “high polyreactivity”; in that of “QVQLVESGGGLVQAGGSLRLSCAASGFNFGTYAMGWYRQAPGKERELVAAISSGGSTYYADSVKGRFTISRDNAKNTVYLQMNSLKPEDTAVYYCAKEGGTYRIFNYWGQGTQVTVSS”, “low polyreactivity”.

For the sequence “QVQLVESGGGLVQAGGSLRLSCAASGRTFFRYAMGWYRQAPGKERELVAVITRGGSTYYADSVKGRFTISRDNAKNTVYLQMNSLKPEDTAVYYCNADGRVQRKYDYWGQGTQVTVSS”, the “polyreactivity (PSR sort gate)” value was “high polyreactivity”. As to “QVQLVESGGGLVQAGGSLRLICAASGLTFKRYAMGWYRQAPGKEREFVAAISAGGASTHYADSVKGRFTISRDNAKNTVYLQMNSLKPEDTAVYYCATDYRSFRPSFGYWGQGTQVTVSS”, the “polyreactivity (PSR sort gate)” value is reported as “low polyreactivity”.
